Results as given in the supplement of paper PMC11908140.

B1: library; numbered along this chain (parent)
chain: MRKPRAAVGSGHRKQAASQEGRQKHAKNNSQAKPSACDGLARQPEEVVLQASVSSYHLFRDVAEVTAFRGSLLSWYDQEKRDLPWRRRAEDEMDLDRRAYAVWVSEVMLQQTQVATVINYYTGWMQKWPTLQDLASASLEEVNQLWAGLGYYSRGRRLQEGARKVVEELGGHMPRTAETLQQLLPGVGRYTAGAIASIAFGQATGVVDGNVARVLCRVRAIGADPSSTLVSQQLWGLAQQLVDPARPGDFNQAAMELGATVCTPQRPLCSQCPVESLCRARQRVEQEQLLASGSLSGSPDVEECAPNTGQCHLCLPPSEPWDQTLGVVNFPRKASRKPPREESSATCVLEQPGALGAQILLVQRPNSGLLAGLWEFPSVTWEPSEQLQRKALLQELQRWAGPLPATHLRHLGEVVHTFSHIKLTYQVYGLALEGQTPVTTVPPGARWLTQEEFHTAAVSTAMKKVFRVYQGQQPGTCMGSKRSQVSSPCSRKKPRMGQQVLDNFFRSHISTDAHSLNSAAQ

Variants of: B1
Test: 8OG:A repair function score (normalized; synonymous = 0, nonsense = -1) (normalized log-likelihood score); higher = more repair activity (WT-like)
Details: with 8OG:A DNA repair reporter (GFP) in HEK-293 MUTYH KO cells
Method in brief: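 MUTYH knockout HEK-293 cells carrying lentiviral MUTYH cDNA NNN codon-scan libraries were grown with 10 pg/ml doxycycline and co-transfected with mCherry and a GFP reporter of 8OG:A repair. Viable mCherry+ cells were sorted at 72 h into GFP+ (repair) and GFP− bins, with three replicates per tile, and tile amplicons were sequenced. Rosace fitness scores for each tile were turned into a normalized repair function score anchored on the synonymous and nonsense distributions. Synonymous medians were set to 0 and nonsense medians to -1, and variants below 300 counts per million at the start were dropped.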

8OG:A repair function score: each site, then its substitutions
P383: W -0.185; G -0.0743; D 0.0298; Y -0.0911; Q 0.0121; M -0.333; V -0.163; N -0.294; F -0.202; E 0.0397; A 0.0723; L -0.0053; K -0.1; T 0.0211; H 0.0207; S -0.0364; I -0.14; R 0.0404; C -0.0431
R389: D -0.426; L -0.04; M -0.236; C -0.13; Q -0.613; P -0.583; I 0.462; F -0.357; A -0.241; Y -0.0127; W -0.531; H -0.403; T 0.1; N -0.415; K -0.274; V 0.273; G -0.385; E -0.116; S -0.117
Q386: T -0.191; G 0.0232; S -0.0961; C 0.0105; P -0.219; I 0.129; L 0.304; R 0.0701; E -0.0345; F -0.144; N 0.0466; M 0.34; A 0.0488; H 0.241; V -0.383; Y 0.41; K -0.213; W 0.351; D -0.076
E385: F -0.34; G -0.126; R -0.0734; I 0.197; H -0.135; P -0.17; K -0.468; S -0.167; W 0.109; Y -0.00387; L 0.0198; N -0.0672; V -0.0807; D 0.0907; T -0.24; M 0.0941; A 0.0147; Q 0.29; C 0.258
K390: H 0.403; L -0.0847; Y -0.199; P -0.262; A -0.201; C 0.0921; W -0.444; S 0.0865; G -0.0253; E -0.0669; M -0.0263; D 0.0762; R -0.126; N 0.177; F -0.0738; T -0.141; I -0.265; Q 0.474; V -0.164
S384: P -0.218; I 0.0514; E 0.0681; D 0.201; V -0.0122; T -0.0483; M -0.315; A 0.0362; K -0.0507; H -0.0587; G 0.138; N -0.0929; R -0.115; C -0.202; F 0.0338; L -0.000173; Q -0.345; Y -0.227
Q388: C -0.459; M -0.052; R 0.206; A 0.235; L 0.511; N 0.244; G -0.34; F -0.281; I 0.175; P 0.145; V 0.063; W -0.0946; T -0.108; S -0.201; D 0.0946; K -0.55; Y -0.235; E -0.368; H -0.356
L387: H -0.744; C -0.171; A -0.21; W -0.0182; R -0.0979; M 0.0425; K 0.00861; I 0.125; E -0.0756; T 0.0729; Y -0.136; F -0.293; Q 0.0651; V -0.0288; G -0.154; N -0.167; D 0.259; P -0.26; S 0.154
A391: L -0.101; P -0.305; N -0.196; G -0.201; V 0.0327; E -0.106; K -0.22; W -0.428; Y -0.00342; D -0.378; I 0.114; C -0.0464; F 0.112; Q -0.0188; S -0.175; T -0.42; M -0.279; R -0.136
R398: S -0.426; Y 0.174; E -0.407; F 0.214; Q -0.525; M 0.0969; V -0.2; P -0.556; K -0.0169; I -0.416; N -0.285; D -0.249; G -0.102; A 0.0255; C -0.0446; H 0.0204; T -0.326; W -0.973; L -0.263
Q394: I -0.343; W -0.387; F -0.00248; S -0.0073; M -0.148; K -0.158; N 0.483; E 0.261; G 0.266; L -0.0272; P -0.467; C -0.273; R -0.0703; Y -0.129; D 0.0938; T -0.314; H 0.21; A 0.04; V -0.209
L396: H -0.886; Q -0.673; A -0.329; E -1.07; T -0.534; K -1.03; R -0.992; I -0.113; W -0.581; F -0.431; D -1.33; V -0.026; M -0.451; P -0.766; N -0.969; G -0.426; Y -1.21; S -0.52; C -0.199
E395: M -0.253; R -0.122; D -0.291; L -0.23; N -0.302; P -0.546; Y -0.0134; H -0.214; A -0.162; K -0.345; V -0.0171; G -0.277; F -0.476; W -0.193; I -0.133; S 0.0493; C -0.217; T -0.194; Q -0.276
Q397: W 0.284; P -0.645; R -0.206; V 0.0994; H -0.717; C -0.496; I -0.624; M -0.301; E -0.364; K -0.304; F 0.0272; A -0.314; D -0.0883; L -0.101; G -0.363; S -0.159; T -0.463; Y -0.0393
W399: A -0.229; F -0.284; H -0.291; G -0.541; C 0.313; D -0.666; E -0.679
E382: D -0.0303; A -0.0399; M 0.019; H 0.042; L 0.0169; V 0.0267; N 0.0107; Q 0.185; G -0.0795; Y 0.217; S 0.000352; P 0.149; K -0.213; W 0.0332; I -0.0196; F 0.0805; C -0.16; R -0.0901; T 0.196
W381: Y -0.0016; T 0.0347; V 0.0132; Q 0.126; P -0.215; R -0.0405; S -0.174
L393: A -0.295; V -0.37; C -0.00132; F -0.244; N -1.03; S -0.405; H 0.25; K -0.0987; P -0.792; Y -0.503; D -0.369; G -0.22; W -0.266; I 0.0907; Q 0.0615; M 0.297; T -0.383; R 0.00361; E -0.395
L392: A -0.807; M -0.171; V -0.289; N -1.52; Y -0.624; P -1.09; G -0.896; I 0.0377; T -0.777; Q -0.839; K -1.03; E -1.11; D -0.872; C -0.389; F -0.647; S -1.04; W -1.27; R -1.02; H -0.963
